doi:10.1101/2021.02.16.431366

Target: mCherry-TRPV5 (rabbit) (UniProt Q9XSM3)
Assay: single molecule photobleaching counting

Chain of mCherry-TRPV5 (rabbit) (Q9XSM3 whole entry): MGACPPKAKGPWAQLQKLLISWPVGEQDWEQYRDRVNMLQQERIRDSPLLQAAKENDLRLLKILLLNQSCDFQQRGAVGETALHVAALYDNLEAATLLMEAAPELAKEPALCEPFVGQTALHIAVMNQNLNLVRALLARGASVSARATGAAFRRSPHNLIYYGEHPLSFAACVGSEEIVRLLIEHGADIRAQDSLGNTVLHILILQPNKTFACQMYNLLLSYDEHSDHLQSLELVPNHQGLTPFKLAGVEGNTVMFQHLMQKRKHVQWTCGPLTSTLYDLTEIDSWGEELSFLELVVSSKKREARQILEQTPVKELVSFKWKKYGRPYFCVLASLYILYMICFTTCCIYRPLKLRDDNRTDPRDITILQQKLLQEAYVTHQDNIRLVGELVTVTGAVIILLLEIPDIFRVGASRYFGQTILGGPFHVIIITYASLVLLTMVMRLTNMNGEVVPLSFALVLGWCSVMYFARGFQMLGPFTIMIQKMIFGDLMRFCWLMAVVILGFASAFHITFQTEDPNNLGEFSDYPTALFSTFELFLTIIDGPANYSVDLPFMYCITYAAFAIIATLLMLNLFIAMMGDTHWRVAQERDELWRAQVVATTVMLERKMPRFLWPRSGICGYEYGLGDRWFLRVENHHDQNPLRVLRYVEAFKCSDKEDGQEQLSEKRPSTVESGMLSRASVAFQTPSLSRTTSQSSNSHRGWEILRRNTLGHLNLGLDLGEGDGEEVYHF

## CaM-eGFP (from UniProt P0DP29 1-149) (natural protein)
  stoichiometry N (CaM molecules per TRPV5 tetramer): 2
